± gives the standard deviation of the averaged measurements.
Assay: total protein half-life in vivo (active degradation + dilution); higher = more stable protein
[1] = E. coli NCM3722 delta-clpP, growth: N-lim chemostat, doubling time 6 h
[2] = E. coli NCM3722 delta-hslV, growth: N-lim chemostat, doubling time 6 h
[3] = E. coli NCM3722 delta-lon, growth: N-lim chemostat, doubling time 6 h
[4] = E. coli NCM3722 delta-smpB, growth: N-lim chemostat, doubling time 6 h
[5] = wild type E. coli NCM3722, growth: N-lim chemostat, doubling time 6 h
[6] = wild type E. coli NCM3722, growth: N-lim chemostat, doubling time 12 h
[7] = E. coli NCM3722 delta-clpP delta-lon delta-hslV, growth: N-lim chemostat, doubling time 6 h
[8] = wild type E. coli NCM3722, growth: C-lim chemostat, doubling time 3 h
[9] = wild type E. coli NCM3722, growth: C-lim chemostat, doubling time 6 h
[10] = wild type E. coli NCM3722, growth: P-lim chemostat, doubling time 6 h
[11] = wild type E. coli NCM3722, growth: P-lim chemostat, doubling time 12 h
[12] = wild type E. coli NCM3722, growth: C-lim chemostat, doubling time 12 h

Sequence: MAMFGFPHWQLKSTSTESGVVAPDERLPFAQTAVMGVQHAVAMFGATVLMPILMGLDPNLSILMSGIGTLLFFFITGGRVPSYLGSSAAFVGVVIAATGFNGQGINPNISIALGGIIACGLVYTVIGLVVMKIGTRWIERLMPPVVTGAVVMAIGLNLAPIAVKSVSASAFDSWMAVMTVLCIGLVAVFTRGMIQRLLILVGLIVACLLYGVMTNVLGLGKAVDFTLVSHAAWFGLPHFSTPAFNGQAMMLIAPVAVILVAENLGHLKAVAGMTGRNMDPYMGRAFVGDGLATMLSGSVGGSGVTTYAENIGVMAVTKVYSTLVFVAAAVIAMLLGFSPKFGALIHTIPAAVIGGASIVVFGLIAVAGARIWVQNRVDLSQNGNLIMVAVTLVLGAGDFALTLGGFTLGGIGTATFGAILLNALLSRKLVDVPPPEVVHQEP
- total protein half-life in vivo [1]: 4.84 ± 1.8 h
- total protein half-life in vivo [2]: 3.33 ± 1.9 h
- total protein half-life in vivo [3]: > 8 h
- total protein half-life in vivo [4]: 3.66 ± 0.6 h
- total protein half-life in vivo [5]: 3.82 h
- total protein half-life in vivo [6]: 5.58 ± 0.86 h

Sequence: MAMPLSLLIGLRFSRGRRRGGMVSLISVISTIGIALGVAVLIVGLSAMNGFERELNNRILAVVPHGEIEAVDQPWTNWQEALDHVQKVPGIAAAAPYINFTGLVESGANLRAIQVKGVNPQQEQRLSALPSFVQGDAWRNFKAGEQQIIIGKGVADALKVKQGDWVSIMIPNSNPEHKLMQPKRVRLHVAGILQLSGQLDHSFAMIPLADAQQYLDMGSSVSGIALKMTDVFNANKLVRDAGEVTNSYVYIKSWIGTYGYMYRDIQMIRAIMYLAMVLVIGVACFNIVSTLVMAVKDKSGDIAVLRTLGAKDGLIRAIFVWYGLLAGLFGSLCGVIIGVVVSLQLTPIIEWIEKLIGHQFLSSDIYFIDFLPSELHWLDVFYVLVTALLLSLLASWYPARRASNIDPARVLSGQ
- total protein half-life in vivo [7]: 5.8 ± 0.74 h
- total protein half-life in vivo [1]: 6.23 ± 0.16 h
- total protein half-life in vivo [2]: 5.66 ± 0.51 h
- total protein half-life in vivo [3]: 5.4 ± 0.27 h
- total protein half-life in vivo [4]: 5.77 ± 0.5 h
- total protein half-life in vivo [8]: 3.32 ± 0.27 h
- total protein half-life in vivo [9]: 5.759 ± 0.033 h
- total protein half-life in vivo [5]: 5.94 ± 0.43 h
- total protein half-life in vivo [6]: 13.9 ± 2.2 h
- total protein half-life in vivo [10]: 6.023 ± 0.042 h
- total protein half-life in vivo [11]: 12.2 ± 0.26 h

Sequence: MANFFIDRPIFAWVLAILLCLTGTLAIFSLPVEQYPDLAPPNVRVTANYPGASAQTLENTVTQVIEQNMTGLDNLMYMSSQSSGTGQASVTLSFKAGTDPDEAVQQVQNQLQSAMRKLPQAVQNQGVTVRKTGDTNILTIAFVSTDGSMDKQDIADYVASNIQDPLSRVNGVGDIDAYGSQYSMRIWLDPAKLNSFQMTAKDVTDAIESQNAQIAVGQLGGTPSVDKQALNATINAQSLLQTPEQFRDITLRVNQDGSEVRLGDVATVEMGAEKYDYLSRFNGKPASGLGVKLASGANEMATAELVLNRLDELAQYFPHGLEYKVAYETTSFVKASIEDVVKTLLEAIALVFLVMYLFLQNFRATLIPTIAVPVVLMGTFSVLYAFGYSVNTLTMFAMVLAIGLLVDDAIVVVENVERIMSEEGLTPREATRKSMGQIQGALVGIAMVLSAVFVPMAFFGGTTGAIYRQFSITIVAAMVLSVLVAMILTPALCATLLKPLKKGEHHGQKGFFAWFNQMFNRNAERYEKGVAKILHRSLRWIVIYVLLLGGMVFLFLRLPTSFLPLEDRGMFTTSVQLPSGSTQQQTLKVVEQIEKYYFTHEKDNIMSVFATVGSGPGGNGQNVARMFIRLKDWSERDSKTGTSFAIIERATKAFNQIKEARVIASSPPAISGLGSSAGFDMELQDHAGAGHDALMAARNQLLALAAENPELTRVRHNGLDDSPQLQIDIDQRKAQALGVAIDDINDTLQTAWGSSYVNDFMDRGRVKKVYVQAAAPYRMLPDDINLWYVRNKDGGMVPFSAFATSRWETGSPRLERYNGYSAVEIVGEAAPGVSTGTAMDIMESLVKQLPNGFGLEWTAMSYQERLSGAQAPALYAISLLVVFLCLAALYESWSVPFSVMLVVPLGVIGALLATWMRGLENDVYFQVGLLTVIGLSAKNAILIVEFANEMNQKGHDLFEATLHACRQRLRPILMTSLAFIFGVLPMATSTGAGSGGQHAVGTGVMGGMISATILAIYFVPLFFVLVRRRFPLKPRPE
- total protein half-life in vivo [1]: 6.56 ± 0.62 h
- total protein half-life in vivo [2]: 6.24 ± 0.45 h
- total protein half-life in vivo [3]: 6.05 ± 0.57 h
- total protein half-life in vivo [4]: 5.38 ± 0.37 h
- total protein half-life in vivo [12]: 12 ± 2.9 h
- total protein half-life in vivo [5]: 6.06 ± 0.82 h
- total protein half-life in vivo [6]: 12.3 ± 0.86 h
- total protein half-life in vivo [10]: 6.36 ± 0.17 h

Sequence: MANGWTGNILRVNLTTGNITLEDSSKFKSFVGGMGFGYKIMYDEVPPGTKPFDEANKLVFATGPLTGSGAPCSSRVNITSLSTFTKGNLVVDAHMGGFFAAQMKFAGYDVIIIEGKAKSPVWLKIKDDKVSLEKADFLWGKGTRATTEEICRLTSPETCVAAIGQAGENLVPLSGMLNSRNHSGGAGTGAIMGSKNLKAIAVEGTKGVNIADRQEMKRLNDYMMTELIGANNNHVVPSTPQSWAEYSDPKSRWTARKGLFWGAAEGGPIETGEIPPGNQNTVGFRTYKSVFDLGPAAEKYTVKMSGCHSCPIRCMTQMNIPRVKEFGVPSTGGNTCVANFVHTTIFPNGPKDFEDKDDGRVIGNLVGLNLFDDYGLWCNYGQLHRDFTYCYSKGVFKRVLPAEEYAEIRWDQLEAGDVNFIKDFYYRLAHRVGELSHLADGSYAIAERWNLGEEYWGYAKNKLWSPFGYPVHHANEASAQVGSIVNCMFNRDCMTHTHINFIGSGLPLKLQREVAKELFGSEDAYDETKNYTPINDAKIKYAKWSLLRVCLHNAVTLCNWVWPMTVSPLKSRNYRGDLALEAKFFKAITGEEMTQEKLDLAAERIFTLHRAYTVKLMQTKDMRNEHDLICSWVFDKDPQIPVFTEGTDKMDRDDMHASLTMFYKEMGWDPQLGCPTRETLQRLGLEDIAADLAAHNLLPA
- total protein half-life in vivo [9]: 5.09 h
- total protein half-life in vivo [12]: 10.2 ± 4.6 h
- total protein half-life in vivo [6]: 7.93 ± 1.3 h

Sequence: MANLLNKFIMTRILAAITLLLSIVLTILVTIFCSVPIIIAGIVKLLLPVPVIWRKVSRFCDFMMYCWCEGLAVLLHLNPHLQWEVHGLEGLSKKNWYLLICNHRSWADIVVLCVLFRKHIPMNKYFLKQQLAWVPFLGLACWSLDMPFMKRYSRAYLLRHPERRGKDVETTRRSCEKFRLHPTTIVNFVEGSRFTQEKHQQTHSTFQNLLPPKAAGIAMALNVLGKQFDKLLNVTLCYPDNNRQPFFDMLSGKLTRIVVHVDLQPIADELHGDYINDKSFKRHFQQWLNSLWQEKDRLLTSLMSSQRQNK
- total protein half-life in vivo [1]: 6.87 h
- total protein half-life in vivo [9]: 6.03 h
- total protein half-life in vivo [6]: 10.5 h
- total protein half-life in vivo [11]: 13.6 h

Sequence: MANPTVIKLQDGNVMPQLGLGVWQASNEEVITAIQKALEVGYRSIDTAAAYKNEEGVGKALKNASVNREELFITTKLWNDDHKRPREALLDSLKKLQLDYIDLYLMHWPVPAIDHYVEAWKGMIELQKEGLIKSIGVCNFQIHHLQRLIDETGVTPVINQIELHPLMQQRQLHAWNATHKIQTESWSPLAQGGKGVFDQKVIRDLADKYGKTPAQIVIRWHLDSGLVVIPKSVTPSRIAENFDVWDFRLDKDELGEIAKLDQGKRLGPDPDQFGG
- total protein half-life in vivo [7]: 5.16 ± 0.27 h
- total protein half-life in vivo [1]: 5.3 ± 0.9 h
- total protein half-life in vivo [2]: 5.36 ± 0.068 h
- total protein half-life in vivo [3]: 5.7 ± 0.23 h
- total protein half-life in vivo [4]: 5.17 ± 0.29 h
- total protein half-life in vivo [8]: 3.7 ± 0.23 h
- total protein half-life in vivo [9]: 6.23 ± 0.55 h
- total protein half-life in vivo [12]: 11.8 ± 1.7 h
- total protein half-life in vivo [5]: 4.8 ± 0.42 h
- total protein half-life in vivo [6]: 8.91 ± 0.27 h
- total protein half-life in vivo [10]: 5.85 ± 0.2 h
- total protein half-life in vivo [11]: 13.3 ± 2.8 h

Sequence: MANVEIYTKETCPYCHRAKALLSSKGVSFQELPIDGNAAKREEMIKRSGRTTVPQIFIDAQHIGGCDDLYALDARGGLDPLLK [P0AC62]
- total protein half-life in vivo [7]: 6.58 h
- total protein half-life in vivo [1]: 5.58 ± 0.71 h
- total protein half-life in vivo [2]: 4.93 ± 0.091 h
- total protein half-life in vivo [3]: 5.33 ± 0.32 h
- total protein half-life in vivo [4]: 5.71 ± 1.9 h
- total protein half-life in vivo [8]: 2.89 ± 0.5 h
- total protein half-life in vivo [9]: 5.23 ± 1 h
- total protein half-life in vivo [5]: 4.68 h
- total protein half-life in vivo [6]: 9.44 ± 2.5 h
- total protein half-life in vivo [10]: 5.35 ± 0.39 h
- total protein half-life in vivo [11]: 12.6 ± 1.1 h

Sequence: MANWLNQLQSLLGQSSSSTSSSADQGLVKLLVPGALGGLAGLLVANKSARKLLTKYGTNALLVGGGAVAGTVLWNKYKDKIRAAHQDEPQFGAQSTPLDERTARLILALVFAAKSDGHIDAKERAAIDQQLRGAGVEEQGRVLIEQAIEQPLDPQRLATGVRNEEEALEIYFLSCAAIDIDHFMERSYLNALGDALKIPQDVRDGIERDLEQQKRTLAE
- total protein half-life in vivo [7]: 5.293 ± 0.0053 h
- total protein half-life in vivo [2]: 3.74 ± 0.12 h
- total protein half-life in vivo [3]: 3.56 ± 0.13 h
- total protein half-life in vivo [4]: 4.47 ± 0.86 h
- total protein half-life in vivo [8]: 2.22 ± 0.19 h
- total protein half-life in vivo [9]: 4.49 ± 0.37 h
- total protein half-life in vivo [12]: 9.68 ± 3.4 h
- total protein half-life in vivo [5]: 4.91 ± 1.6 h
- total protein half-life in vivo [6]: 8.34 ± 0.38 h
- total protein half-life in vivo [10]: 3.34 ± 0.58 h
- total protein half-life in vivo [11]: 5.708 ± 0.041 h
